T1: recombinant Cad-11 EC1 human IgG1 fusion protein (R&D Systems Cat. No. 1790-CA-050) (human, UniProt P55287 54-617, limits assumed)
T1 construct: Bought protein; the catalogue product may hold more of the extracellular region; also called recombinant human Cad-11 EC1; recombinant human Cad-11 fusion protein; not shown: human IgG1 part of the bought fusion protein
T1 sequence: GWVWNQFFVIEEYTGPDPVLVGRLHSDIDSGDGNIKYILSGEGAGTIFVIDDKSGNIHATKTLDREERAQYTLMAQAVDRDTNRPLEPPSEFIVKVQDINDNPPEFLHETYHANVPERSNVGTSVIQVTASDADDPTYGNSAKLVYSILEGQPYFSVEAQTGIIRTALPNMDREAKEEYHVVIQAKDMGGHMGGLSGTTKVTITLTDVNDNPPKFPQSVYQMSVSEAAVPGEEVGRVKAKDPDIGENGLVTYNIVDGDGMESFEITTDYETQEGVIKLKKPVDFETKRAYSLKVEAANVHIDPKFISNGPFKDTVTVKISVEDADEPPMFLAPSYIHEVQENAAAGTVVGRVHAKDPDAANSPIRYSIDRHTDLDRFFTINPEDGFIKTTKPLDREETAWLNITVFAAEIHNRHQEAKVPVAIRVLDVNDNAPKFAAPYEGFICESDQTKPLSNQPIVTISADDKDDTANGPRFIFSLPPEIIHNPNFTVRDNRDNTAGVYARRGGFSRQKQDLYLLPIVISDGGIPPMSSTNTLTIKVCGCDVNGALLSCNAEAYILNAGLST

T2: BSA coupled 37-mer Cad-11 peptide encompassing the Cad-11 immunogen (UniProt P55287 54-90, limits assumed, linked to BSA)
T2 construct: domain: 37-mer peptide encompassing the Cad-11 immunogen; also called Cad-11 antigen; Cad-11 peptide immunogen
T2 peptide (looked up): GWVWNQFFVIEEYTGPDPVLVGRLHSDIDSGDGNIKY


What was measured:
[1] = target: human Cadherin-11 protein expressed on 431-D-11 cells (human) (UniProt P55287); experiment: cell-based or functional assay
[2] = target: T1, recombinant Cad-11 EC1 human IgG1 …; experiment: competition ELISA on coated recombinant human Cad-11 EC1 fusion; competitor biotinylated SYN0012/H1M1 at 0.1 µg/ml
Method: (§1) The binding of the purified humanized composite variant antibodies (SDP011 to SDP151) to a recombinant Cad-11 EC1 human IgG1 fusion protein was assessed in a competition binding ELISA. A dilution series from 5 μg/ml to 0.0022 μg/ml of the humanized or control (SYN0012/H1M1) antibodies was premixed with a constant concentration of biotinylated murine anti-Cad-11 antibody, SYN0012/H1M1 (0.1 μg/ml, final concentration), before incubating for 1 hour at room temperature on a Nunc Immuno MaxiSorp 96 well flat bottom microtitre plate (Fisher Cat. No. DIS-971-030J) pre-coated with 0.25 μg/ml recombinant human Cad-11 EC1 (R&D Systems Cat. No. 1790-CA-050) diluted in PBS. The binding of the biotinylated mAb was detected with streptavidin-HRP (Sigma Cat. No. 55512) and tetramethylbenzidine (TMB) substrate (Invitrogen Cat. No. 00-2023).
The relative IC50 was calculated by dividing the value for the test antibody by that of SYN0012. Antibody expression levels given are for static cultures in T flasks. PI are calculated.

[3] = target: T1, recombinant Cad-11 EC1 human IgG1 …; experiment: competition ELISA on coated recombinant human Cad-11 EC1 fusion protein; competitor biotinylated SYN0012 at 0.1 µg/ml, streptavidin-HRP, OD450
Method: as §1

[4] = target: T2, BSA coupled 37-mer Cad-11 peptide …; experiment: ELISA, BSA-coupled 37-mer cadherin peptide coated at 500 ng/ml, antibody titrated, A450
Method: Reactibind plates (ThermoScientific) were coated with 500 ng/ml of the BSA coupled cadherin 37-mer peptide (NE peptide) corresponding to Cadherins-7, -8, -9, -11, -18, -20, and -24 in 0.05% Tween (EMD, product code 9480) in PBS (pH 7.2) (Gibco(Invitrogen), #20012) at 100 μl volume/well for overnight at 4° C. The peptide containing solution was removed from the well and the plate blocked with a 2% bovine serum albumin (BSA) in PBS, 200 μl volume/well, for 2 h at 22° C. The plate was then washed twice with 200 μl/well of PBS-Tween 0.05% at 22° C. and blotted dry. A dilution series from 5 μg/ml to 8 ng/ml in a volume of 100 μl/well of each the humanized anti-Cad-11 antibodies were incubated in the peptide coated wells and incubated at 22° C. for 1 hr. Antibody solution was removed from the wells and the plate washed twice with 200 μl/well of 0.05% Tween-PBS at 22° C. and blotted dry. The goat-anti mouse IgG (Pierce # 31432) was added to each well to plate at a 1:1000 dilution, 100 μl/well and incubate at 22° C. for 30 min. The secondary antibody solution was removed and the plate washed twice with 200 μl/well of 0.05% Tween-PBS at 22° C. and blotted dry. The reaction was developed by adding 100 μl/well tetramethylbenzidine (TMB) reagent IgG (Pierce # 34022, 1 step Turbo TMB-ELISA) to plate and developed at 22° C. for 5 min.

[5] = target: T2, BSA coupled 37-mer Cad-11 peptide …; experiment: ELISA on BSA coupled 37-mer cadherin peptides, coat 500 ng/ml
Method: A dilution series from 5 μg/ml to 8 ng/ml in a volume of 100 μl/well of each the humanized anti-Cad-11 antibodies were incubated in the peptide coated wells and incubated at 22° C. for 1 hr. Antibody solution was removed from the wells and the plate washed twice with 200 μl/well of 0.05% Tween-PBS at 22° C. and blotted dry. The goat-anti mouse IgG (Pierce # 31432) was added to each well to plate at a 1:1000 dilution, 100 μl/well and incubate at 22° C. for 30 min. The secondary antibody solution was removed and the plate washed twice with 200 μl/well of 0.05% Tween-PBS at 22° C. and blotted dry. The reaction was developed by adding 100 μl/well tetramethylbenzidine (TMB) reagent IgG (Pierce # 34022, 1 step Turbo TMB-ELISA) to plate and developed at 22° C. for 5 min.
The greatest cross reactivity was seen against Cad-8. […] This assay was repeated with the Cad-11, Cad-8 and Cad-18 antigens with a lower antigen coat concentration of 50 ng/ml and a wider dilution series of the SDP051 antibody (FIG. 41B). […] An EC50 for Cad-18 could not be established due to the low level of binding observed.

| in vitro cell aggregation assay [1] | relative IC50 (IC50 of the test antibody divided by that of SYN0012) [2] | IC50 (read off the curve) [3] | EC50 (read off the curve) [4] | fold greater binding to the Cad-11 antigen than to the related antigens from the other cadherins [5] | Molecule |
| --- | --- | --- | --- | --- | --- |
|  | 0.47 ratio (column head prints µg/mL) |  | ~0.06 µg/mL | > 20 fold | humanized anti-Cad-11 antibody SDP061 (Vκ2/VH1) (antibody, IgG4, V domains shown, humanized IgG4 (S241P), kappa) VH: EVQLVQSGPELKKPGASVKISCKASGYSFTGYFMNWVKQAHGQGLEWIGRINPYTGDTFYNQKFKGRATLTVDKSSSTAYMELVSLSSEDSAVYYCGRLGSRYWYFDVWGQGTTVTVSS VL: DVLMTQTPLSSPVTLGQPASISCRSSQSIIHSNGNTYLEWYLQKPGQSPQLLIYKVSNRFSGVPDRFSGSGSGTDFTLKISRVEAEDVGVYYCFQGSHVPWTFGQGTKLEIK |
|  | 0.33 ratio (column head prints µg/mL) |  | ~0.07 µg/mL | > 20 fold | humanized anti-Cad-11 antibody SDP071 (Vκ2/VH2) (antibody, IgG4, V domains shown, humanized IgG4 (S241P), kappa) VH: EVQLVQSGAEVKKPGASVKISCKASGYSFTGYFMNWVKQAPGQGLEWIGRINPYTGDTFYNQKFKGRATLTVDKSTSTAYMELSSLRSEDTAVYYCGRLGSRYWYFDVWGQGTTVTVSS VL: DVLMTQTPLSSPVTLGQPASISCRSSQSIIHSNGNTYLEWYLQKPGQSPQLLIYKVSNRFSGVPDRFSGSGSGTDFTLKISRVEAEDVGVYYCFQGSHVPWTFGQGTKLEIK |

Second part, the molecule before the results:

| Molecule | in vitro cell aggregation assay [1] | relative IC50 (IC50 of the test antibody divided by that of SYN0012) [2] | IC50 (read off the curve) [3] | EC50 (read off the curve) [4] | fold greater binding to the Cad-11 antigen than to the related antigens from the other cadherins [5] |
| --- | --- | --- | --- | --- | --- |
| human Cad-11-EC1-hIgG2-Fc1 fusion protein (Fc fusion) | 3 µg/mL |  |  |  |  |
| humanized anti-Cad-11 antibody SDP031 (Vκ1/VH3) (antibody, IgG4, V domains shown, humanized IgG4 (S241P), kappa) VH: EVQLVQSGAEVKKPGASVKISCKASGYSFTGYFMNWVRQAPGQGLEWIGRINPYTGDTFYNQKFKGRATLTVDKSTSTAYMELSSLRSEDTAVYYCGRLGSRYWYFDVWGQGTTVTVSS VL: DVLMTQTPLSSPVTLGQPASISCRSSQSIIHSNGNTYLEWYLQKPGQSPQLLIYKVSNRFSGVPDRFTGSGSGTDFTLKISRVEAEDVGVYYCFQGSHVPWTFGQGTKLEIK |  | 0.84 ratio (column head prints µg/mL) | ~0.2 µg/mL | ~0.06 µg/mL | > 20 fold |

— patent US20110045003A1 (SYNOVEX, published 2011)
